Data: patent US20130209439A1, “INHIBITORS OF PDE4 BINDING TO HSP20” (THE UNIVERSITY COURT OF THE UNIVERSITY OF GLASGOW, priority 2010, published 2013)

T1: His-HSP20 (purified recombinant His-tagged HSP20) (human, UniProt O14558 1-160)
T1 construct: Expressed in E. coli BL21 from pET28c and purified on nickel; also called HSP20-His; HSP20-6His; not shown: His tag from the pET28c vector
T1 sequence: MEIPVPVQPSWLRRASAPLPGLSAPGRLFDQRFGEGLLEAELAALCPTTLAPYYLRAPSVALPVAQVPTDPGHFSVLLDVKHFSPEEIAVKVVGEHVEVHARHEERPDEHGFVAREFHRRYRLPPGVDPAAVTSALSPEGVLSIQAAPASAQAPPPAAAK


What follows are molecules tested against T1, His-HSP20 (purified recombinant …) (assay: SPOT peptide array overlaid with purified His-Hsp20). Conditions: not given.
Description: A variety of peptides were generated and SPOT-synthesised onto slides which were then overlaid with 10 μg/ml of purified His-Hsp20. Interaction with peptides and Hsp20 was evaluated by probing slides with anti-His or Hsp20 antibodies and analysed using enhanced chemi-luminescence techniques, Negative controls used anti-His antibody only with no overlay of His-Hsp20 protein (data not shown).

Molecule | binding result
Ac-FQNLTK-NH2 (On the array SPOT-synthesised on a slide; also called peptide No 6) [Ac-FQNLTK-NH2] | binds
Ac-FQNLTA-NH2 (Negative control; On the array SPOT-synthesised on a slide; also called peptide No 4) [Ac-FQNLTA-NH2] | no binding (tested: 10 ug/ml His-Hsp20 overlay)
Ac-FQNLTR-NH2 (On the array SPOT-synthesised on a slide; also called peptide No 5) [Ac-FQNLTR-NH2] | binds
Ac-YQNLTK-NH2 (On the array the peptide was SPOT-synthesised on a slide; the soluble form Ac-...-NH2 was made 'to resemble SPOT synthesised peptides'; also called peptide No 3) [Ac-YQNLTK-NH2] | binds
Ac-FKLLQ-NH2 (On the array SPOT-synthesised on a slide; also called peptide No 9) [Ac-FKLLQ-NH2] | binds
Ac-GFKLL-NH2 (On the array SPOT-synthesised on a slide; also called peptide No 11) [Ac-GFKLL-NH2] | binds
Ac-GFALL-NH2 (Negative control; On the array SPOT-synthesised on a slide; also called peptide No 16) [Ac-GFALL-NH2] | no binding (tested: 10 ug/ml His-Hsp20 overlay)
Ac-GFRLL-NH2 (On the array SPOT-synthesised on a slide; also called peptide No 12) [Ac-GFRLL-NH2] | binds
Ac-KFKLL-NH2 (On the array SPOT-synthesised on a slide; also called peptide No 13) [Ac-KFKLL-NH2] | binds
Ac-RFKLL-NH2 (On the array SPOT-synthesised on a slide; also called peptide No 14) [Ac-RFKLL-NH2] | binds

These molecules were tested on Phospho-Ser16 HSP20 in neonatal cardiac myocytes (assay: Ser16 phosphorylation of endogenous HSP20 in neonatal cardiac myocytes (Western blot)). Conditions: cardiomyocytes, stimulated with isoproterenol alone or with PKA inhibitor pre-treatment; data not shown.
Format: cell-based, rat
Description: FIG. 2. The phosphorylation of HSP20 at Ser16 is modulated by PDE4 activity in cardiac myocytes. A, Neonatal cardiac myocytes were treated with isoprenaline for indicated times with or without pre-treatment with the PDE4-specific inhibitor, rolipram. Cellular lysates were blotted for HSP20 and Phospho-Ser16 HSP20. B, Quantifications of data from FIG. 2A (n=3). * Denotes significance at a level p<0.05 over iso treatment.
(§1) HEK293B2 cells are a stable cell line overexpressing the GFP-tagged β2AR were cultured as previously described^48. HEK293B2 cells were transiently transfected with wild type HSP20 or a phosphorylation defective HSP20 (S16A) or a phosphorylation mimic HSP20 (S16D). Neonatal cardiac myocytes were prepared and cultured as previously described^30. Cell lysis, immunopurification and western blotting was done as described before by us in some detail^48. Briefly, HEK 293 cells were transiently transfected with wild-type HSP20 by using Polyfect Transfection Reagent (Qiagen). Transfected HEK 293 cells were treated with 10 μM bs906 or 10 μM control peptide for 0, 15, 30, 60 and 120 min. Control and treated transfected HEK 293 cells were then washed thrice with ice cold PBS (phosphate buffered saline) before cellular lysates were prepared. Cellular lysates were prepared in lysis buffer containing 25 mM Hepes, pH 7.5, 2.5 mM EDTA, 50 mM NaCl, 50 mM NaF, […], 10% (v/v) glycerol, 1% (v/v) Triton X-100 and Complete™ EDTA-free protease inhibitor cocktail tablets (Roche). Protein concentration of lysates were determined using the Bradford assay and all samples were equalised for protein concentration. Proteins were separated by SOS/PAGE (4-12% Bis-Tris gels) and transferred onto nitrocellulose membranes for Western blotting. Antibodies were used to detect phospho-proteins and native proteins in lysates from control and treated cells
To determine whether inhibition of PDE4 activity had similar effects on endogenous phospho-HSP20 levels in heart cells, similar experiments were undertaken using neonatal cardiomyocytes (FIG. 2).

Molecule | HSP20 phosphorylation after PKA inhibitor pre-treatment
CCCCCCOC(=O)[C@]1(O)C[C@@H]2O[C@@]1(C)n1c3ccccc3c3c4c(c5c6ccccc6n2c5c31)C(=O)NC4 [KT5720] | markedly attenuated HSP20 phosphorylation
O=S(=O)(NCCNC/C=C/c1ccc(Br)cc1)c1cccc2cnccc12 [Peptide H89, H89] | markedly attenuated HSP20 phosphorylation

The molecules below were run on pS16-Hsp20 in SH-SY5Y cells (assay: Cell based Hsp20-PDE4D disruptor assay, nucleofected SH-SY5Y cells, pS16-Hsp20 Western blot). Conditions: SH-SY5Y cells nucleofected with 500 μM peptide, 2 hours.
Parameters: species or system human
Description: FIG. 9. Disrupter induced HSP20 phosphorylation SH-SY5Y cells nucleofected with 500 μM of each peptide and incubated for 2 hours prior to harvesting. Each assay was blotted for Hsp20, pS16-Hsp20 and tubulin. Changes in levels of phospho-Hsp20 relative to DMSO only controls were quantified through densitometry analysis and each assay was normalised to α-tubulin loading control. The results are the average of three separate experiments and error bars represent SEM. *=p<0.05, **=p<0.01 compared to DMSO only controls (Student-T-test)
SDS-PAGE analysis was done on NuPage® pre-cast gels X-cell apparatus (Invitrogen, Paisley) using MES-SDS running buffer, Samples were reduced in Laemmli 2× loading buffer (4% SOS) with 5% β-mercaptoethanol. For Western Blotting (WB) analysis, samples were transferred using NuPage® X-cell blotting module onto a nitrocellulose membrane. Membranes were blocked using 5% Milk in 1×TBST (w/v). Antibodies were incubated in 1% milk in 1×TBST (w/v) for either 1 hour at room temperature or overnight at 4° C. Signals were detected using enhanced chemiluminescence system (Pierce) and developed on an X-omat film developer. Subsequent densitometry analysis was carried out using Quantity One (Bio-Rad).
SH-SY5Y cells (ATCC-CRL-2266) were grown in Dulbecco's Modified Eagle's Medium (DMEM) and F12-Ham's at a 1:1 ratio, media was supplemented with 10% (v/v) fetal bovine serum (FBS), 1% (v/v) L-Glutamine, 1% (v/v) Minimum Essential Medium—With Non-essential Amino Acids (MEM-NAA) and 1% (v/v) Pen/strep. Cells were cultured in a humidified, 5% (v/v) CO2, 37° C. incubator.
SH-SY5Y cells were nucleofected using Cell Line Nucleofector® Kit-V in accordance with manufacturers protocol (Amaxa Biosystems). Setting A-23 on the Nucleofector I device was used which increases cell viability. For each assay, 500 μM of disrupter peptide was incubated with 100 μl of nucleofection solution containing approximately 2×10^6 cells. After nucleofection cells were re-suspended in 500 μl of culture media before being transferred to a 6 well plate with a final volume of 2 ml per well. Cells were incubated for 2 hours prior to harvesting with […] containing protease and phosphatase inhibitors (Roche).
As the cell permeability of the peptides is unknown we used an electroporation technique to introduce the peptides into the SH-SY5Y cells. The Amaxa cell-line specific Nucleofector Kit V (Lonza) was used to transfect the peptides into the cells. […] Each assay used a final concentration of 500 μM of peptide in nucleofector solution containing approximately 2×10^6 SH-SY5Y cells. As peptides were dissolved in 100% DMSO, control transfections with DMSO only were used to compare any changes in phospho-Hsp20 levels. After each transfection the solution was reconstituted in culture media and incubated for 2 hours to allow for cell adhesion prior to the harvesting of viable cells.

Molecule | pS16-Hsp20 levels relative to DMSO only controls
Ac-FKLLQ-NH2 [Peptide 9] | indistinguishable from DMSO only controls
Ac-FQNLTK-NH2 [Peptide 6] | significant increase in pS16-Hsp20 levels
Ac-GFALL-NH2 [Peptide 16] | average value similar to the DMSO only controls
Ac-GFKLL-NH2 [Peptide 11] | indistinguishable from DMSO only controls
Ac-GFRLL-NH2 [Peptide 12] | induced an average increase when compared with DMSO only controls
Ac-KFKLL-NH2 [Peptide 13] | induced an average increase when compared with DMSO only controls
Ac-LTK-NH2 (Ac-Leu-Thr-Lys-NH2) [Peptide 7] | significant increase in pS16-Hsp20 levels
Ac-YQNLTK-NH2 [Peptide 3] | no effect on phosphorylation levels

Each molecule was assayed against T1, His-HSP20 (purified recombinant …) (assay: PDE4D5 peptide array overlaid with HSP20-6His). Conditions: not given.
Excerpt: PDE4 isoform localisation invariably depends on protein-protein interactions, with PDE4s shown to associate with a diverse group of interacting partners such as RACK1^{32, 36}, βarrestin³⁶, β₁-Ar³⁷, DISC1³⁸, the p75 neurotrophin receptor³⁹ and the cardiac IKs potassium channel⁴⁰. […] Dark spots represent positive areas of HSP20 interaction whereas clear spots are negative for the association (FIG. 4A).

Molecule | binding result
YNDSSVLENHHLAVGFKLLQEENCD (peptides 93 to 96 span Y461-K500; SPOT-immobilised; also called spot 93) [25mer peptide 93 of the PDE4D5 peptide array] | binds
VLENHHLAVGFKLLQEENCDIFQNL (peptides 93 to 96 span Y461-K500; SPOT-immobilised; also called spot 94) [25mer peptide 94 of the PDE4D5 peptide array] | binds
HLAVGFKLLQEENCDIFQNLTKKQR (peptides 93 to 96 span Y461-K500; SPOT-immobilised; also called spot 95) [25mer peptide 95 of the PDE4D5 peptide array] | binds
FKLLQEENCDIFQNLTKKQRQSLRK (peptides 93 to 96 span Y461-K500; SPOT-immobilised; also called spot 96) [25mer peptide 96 of the PDE4D5 peptide array] | binds

Each molecule was assayed on Phospho-Ser16 HSP20 in HEKB2 cells (assay: Ser16 phosphorylation of HSP20 in HEKB2 cells overexpressing HSP20 (Western blot)). Conditions: HEKB2 cells, stimulated with isoproterenol alone; data not shown.
Format: cell-based
Description: FIG. 1. The phosphorylation of HSP20 at Ser16 is modulated by PDE4 activity in HEKB2 cells. A, HEKB2 cells overexpressing HSP20 or HSP20 ser16-Ala mutant were treated with isoprenaline for indicated times. Cellular lysates were blotted for HSP20 and Phospho-Ser16 HSP20. B, HEKB2 cells overexpressing HSP20 were treated with isoprenaline for indicated times, Cellular lysates were blotted for HSP20 and Phospho-Ser16 HSP20. C, HEKB2 cells overexpressing HSP20 were treated with isoprenaline for indicated times following pre-treatment with the PDE4-specific inhibitor, rolipram. Cellular lysates were blotted for HSP20 and Phospho-Ser16 HSP20. D, Quantifications of data from FIGS. 1B and 1C (n=4). * Denotes significance at a level p<0.05 E, Lysate from untransfected HEKB2 cells was blotted for HSP20 and Phospho-Ser16 HSP20.
as §1
In contrast to this, when we transfected these cells with a phospho-null mutant form, Ser16Ala-Hsp20, then no such change was observed (FIG. 1A). In order to evaluate whether PDE4 activity played a role in regulating this phosphorylation process in Hsp20-transfected HEKB2 cells, cells that had either been pre-treated or not with the PDE4 selective inhibitor rolipram were subsequently challenged with isoprenaline (1 μM) (FIGS. 1B and C). […] Endogenous levels of phospho-HSP20 or HSP20 were not detectable in HEKB2 cells (FIG. 1E).

Molecule | HSP20 phosphorylation after PKA inhibitor pre-treatment
CCCCCCOC(=O)[C@]1(O)C[C@@H]2O[C@@]1(C)n1c3ccccc3c3c4c(c5c6ccccc6n2c5c31)C(=O)NC4 [KT5720] | markedly attenuated HSP20 phosphorylation
O=S(=O)(NCCNC/C=C/c1ccc(Br)cc1)c1cccc2cnccc12 [Peptide H89, H89] | markedly attenuated HSP20 phosphorylation
